The target in one assay is T1, recombinant human IL4 (human, UniProt P05112 25-153).
T1 construct: Bought protein
T1 sequence (looked up): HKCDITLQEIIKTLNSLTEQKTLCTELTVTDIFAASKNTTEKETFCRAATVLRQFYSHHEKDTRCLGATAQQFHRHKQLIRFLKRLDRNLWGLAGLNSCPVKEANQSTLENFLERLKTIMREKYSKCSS
Put plainly: SPR (Biacore).

The target of another assay is T2, CD3.
T2 chain 1: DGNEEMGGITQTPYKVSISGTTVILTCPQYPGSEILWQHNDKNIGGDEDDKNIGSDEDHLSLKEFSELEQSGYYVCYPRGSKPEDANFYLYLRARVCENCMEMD
T2 chain 2: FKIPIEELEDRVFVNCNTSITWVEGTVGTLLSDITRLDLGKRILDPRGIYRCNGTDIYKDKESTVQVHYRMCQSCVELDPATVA
Put plainly: SPR (Biacore), CD3 as analyte.

A further assay has as its target T3, CD123 (UniProt P26951 19-305, limits assumed).
T3 sequence (looked up): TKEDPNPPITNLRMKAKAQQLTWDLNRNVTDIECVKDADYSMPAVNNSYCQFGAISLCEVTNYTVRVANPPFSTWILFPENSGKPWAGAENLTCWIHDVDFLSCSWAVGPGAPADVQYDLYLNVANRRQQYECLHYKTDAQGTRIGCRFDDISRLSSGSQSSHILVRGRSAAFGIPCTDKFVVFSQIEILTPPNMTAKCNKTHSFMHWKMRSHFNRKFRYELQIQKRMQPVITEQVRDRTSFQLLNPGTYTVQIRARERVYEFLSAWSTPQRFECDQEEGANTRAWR
As to the kind of experiment: SPR (Biacore), CD123 as analyte.

B1: bispecific Fab-like fragment in the CODV bivalent Fab configuration (ECH2), anti-IL13 (huBB13) x anti-IL4 (hu8D4-8) (Example 6) (bispecific antibody)
chain 1: EVQLKESGPGLVAPGGSLSITCTVSGFSLTDSSINWVRQPPGKGLEWLGMIWGDGRIDYADALKSRLSISKDSSKSQVFLEMTSLRTDDTATYYCARDGYFPYAMDFWGQGTSVTVSSSQVQLQQSGPELVKPGASVKISCKASGYSFTSYWIHWIKQRPGQGLEWIGMIDPSDGETRLNQRFQGRATLTVDESTSTAYMQLRSPTSEDSAVYYCTRLKEYGNYDSFYFDVWGAGTLVTVSSRTASTKGPVASRDFTPPTVKILQSSCDGGGHFPPTIQLLCLVSGYTPGTIQITWLEDGQVMDVDLSTASTTQEGELASTQSELTLSQKHWLSDRTYTCQVTYQGHTFEDSTKKCAGSHHHHHHHH
chain 2: DIQMTQSPASLSVSVGDTITLTCHASQNIDVWLSWFQQKPGNIPKLLIYKASNLHTGVPSRFSGSGSGTGFTLTISSLQPEDIATYYCQQAHSYPFTFGGGTKLEIKGQPKAAPDIVLTQSPASLAVSLGQRATISCRASESVDSYGQSYMHWYQQKAGQPPKLLIYLASNLESGVPARFSGSGSRTDFTLTIDPVQAEDAATYYCQQNAEDSRTFGGGTKLEIKTKGPSRTVASRDFTPPTVKILQSSCDGGGHFPPTIQLLCLVSGYTPGTIQITWLEDGQVMDVDLSTASTTQEGELASTQSELTLSQKHWLSDRTYTCQVTYQGHTFEDSTKKCA
notes: An 8x histidine tag was added for purification; also called CH2E-pseudo-CODV antibody
On to B1, for which, in the assay with recombinant human IL4, the binding result is “binds”.

B2: F(ab')2-like antibody with ECH2 replacing the hinge region, anti-IL4 (hu8D4-8) CH1/kappa Fab and anti-IL13 (huBB13) MCH2 Fab (Example 7) (bispecific antibody)
heavy 1: VQLQQSGPELVKPGASVKISCKASGYSFTSYWIHWIKQRPGQGLEWIGMIDPSDGETRLNQRFQGRATLTVDESTSTAYMQLRSPTSEDSAVYYCTRLKEYGNYDSFYFDVWGAGTLVTVSSASTKGPSVFPLAPSSKSTSGGTAALGCLVKDYFPEPVTVSWNSGALTSGVHTFPAVLQSSGLYSLSSVVTVPSSSLGTQTYICNVNHKPSNTKVDKKVEPKSCGSGSGSVASRDFTPPTVKILQSSCDGGGHFPPTIQLLCLVSGYTPGTIQITWLEDGQVMDVDLSTASTTQEGELASTQSELTLSQKHWLSDRTYTCQVTYQGHTFEDSTKKCA
light 1: DIQMTQSPASLSVSVGDTITLTCHASQNIDVWLSWFQQKPGNIPKLLIYKASNLHTGVPSRFSGSGSGTGFTLTISSLQPEDIATYYCQQAHSYPFTFGGGTKLEIKRTVAAPSVFIFPPSDEQLKSGTASVVCLLNNFYPREAKVQWKVDNALQSGNSQESVTEQDSKDSTYSLSSTLTLSKADYEKHKVYACEVTHQGLSSPVTKSFNRGEC
heavy 2: EVQLKESGPGLVAPGGSLSITCTVSGFSLTDSSINWVRQPPGKGLEWLGMIWGDGRIDYADALKSRLSISKDSSKSQVFLEMTSLRTDDTATYYCARDGYFPYAMDFWGQGTSVTVSSGSGSGSVIAELPPKVSVFVPPRDGFFGNPRKSKLICQATGFSPRQIQVSWLREGKQVGSGVTTDQVQAEAKESGPTTYKVTSTLTIKESDWLGQSMFTCRVDHRGLTFQQQASSMCVPGSGSGSVASRDFTPPTVKILQSSCDGGGHFPPTIQLLCLVSGYTPGTIQITWLEDGQVMDVDLSTASTTQEGELASTQSELTLSQKHWLSDRTYTCQVTYQGHTFEDSTKKCAGSHHHHHHHH
light 2: DIVLTQSPASLAVSLGQRATISCRASESVDSYGQSYMHWYQQKAGQPPKLLIYLASNLESGVPARFSGSGSRTDFTLTIDPVQAEDAATYYCQQNAEDSRTFGGGTKLEIKRTVIAELPPKVSVFVPPRDGFFGNPRKSKLICQATGFSPRQIQVSWLREGKQVGSGVTTDQVQAEAKESGPTTYKVTSTLTIKESDWLGQSMFTCRVDHRGLTFQQQASSMCVP
notes: also called pseudo hinge-CH2E-hybrid-Fab2
Consider B2, for which the binding result in the assay with recombinant human IL4 is listed as “binds”.

B3: antibody in Bivalent Fab configuration, MCH2 domain of one Fab-like fragment (CD3) linked to a variable domain of the other Fab (CD123) (Example 5) (bispecific antibody)
light 1: DIVMTQTPLSLSVTPGQPASISCKSSQSLVHNNANTYLSWYLQKPGQSPQSLIYKVSNRFSGVPDRFSGSGSGTDFTLKISRVEAEDVGVYYCGQGTQYPFTFGSGTKVEIKRTVIAELPPKVSVFVPPRDGFFGNPRKSKLICQATGFSPRQIQVSWLREGKQVGSGVTTDQVQAEAKESGPTTYKVTSTLTIKESDWLGQSMFTCRVDHRGLTFQQNASSMCVP
heavy: QVQLVESGGGVVQPGRSLRLSCAASGFTFTKAWMHWVRQAPGKQLEWVAQIKDKSNSYATYYADSVKGRFTISRDDSKNTLYLQMNSLRAEDTAVYYCRGVYYALSPFDYWGQGTLVTVSSGGVIAELPPKVSVFVPPRDGFFGNPRKSKLICQATGFSPRQIQVSWLREGKQVGSGVTTDQVQAEAKESGPTTYKVTSTLTIKESDWLGQSMFTCRVDHRGLTFQQNASSMCVPGGGSEVQLVQSGAEVKKPGESLKISCKGSGYSFTDYYMKWARQMPGKGLEWMGDIIPSSGATFYNQKFKGQVTISADKSISTTYLQWSSLKASDTAMYYCARSHLLRASWFAYWGQGTMVTVSSASTKGPSVFPLAPSSKSTSGGTAALGCLVKDYFPEPVTVSWNSGALTSGVHTFPAVLQSSGLYSLSSVVTVPSSSLGTQTYICNVNHKPSNTKVDKKVEPKSCDKTHTHHHHHH
light 2: not shown
notes: also called bispecific bivalent Fab; bivalent bispecific Fab fragment
In the assay with CD3, B3 displayed a Kd of 5.71 nM, a koff of 0.0009 s⁻¹ and a kon of 158000 M⁻¹ s⁻¹. In the assay with CD123, this molecule showed a Kd of 0.0838 nM, a koff of 3.77e-05 s⁻¹ and a kon of 450000 M⁻¹ s⁻¹.

As a reminder, the Kd is the concentration at which binding is half-saturated. Read a high Kd as a looser complex. Broadly, the koff is a measure of how fast the partners let go of each other. Higher therefore signals fast dissociation. Broadly, the kon is the second-order rate constant of association. Read a high kon as fast association.

The values are drawn from patent US20180057567A1 (Sanofi, published 2018).
